Data set [1] concerns the target T1, tsks fused to the GAL 4 activation domain (AD).
T1 chain: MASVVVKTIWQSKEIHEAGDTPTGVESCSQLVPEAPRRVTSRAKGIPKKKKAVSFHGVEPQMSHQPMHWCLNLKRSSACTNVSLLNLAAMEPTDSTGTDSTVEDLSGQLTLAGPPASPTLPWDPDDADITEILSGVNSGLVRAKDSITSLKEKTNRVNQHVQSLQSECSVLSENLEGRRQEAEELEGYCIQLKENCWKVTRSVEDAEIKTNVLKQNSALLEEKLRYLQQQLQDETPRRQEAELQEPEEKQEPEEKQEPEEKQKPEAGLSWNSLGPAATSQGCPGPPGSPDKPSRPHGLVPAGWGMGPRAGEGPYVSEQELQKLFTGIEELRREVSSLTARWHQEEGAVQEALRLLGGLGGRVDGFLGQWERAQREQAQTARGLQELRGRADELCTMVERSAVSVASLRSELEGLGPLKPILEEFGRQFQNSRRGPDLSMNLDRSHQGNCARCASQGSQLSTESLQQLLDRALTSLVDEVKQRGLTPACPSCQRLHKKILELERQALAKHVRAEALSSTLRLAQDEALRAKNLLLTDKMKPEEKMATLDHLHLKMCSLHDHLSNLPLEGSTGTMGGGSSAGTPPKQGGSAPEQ

For data set [2], the target named is T2, tssk 2 fused to the GAL4 DNA binding domain (DNA-BD) (human, UniProt P04386 1-147 (Saccharomyces cerevisiae entry), limits assumed).
T2 construct: Yeast two-hybrid bait expressed in the AH109 reporter strain; also called bait gene (tssk 2); fusion protein of tssk 2 with the DNA-BD
The data set can be described thus: yeast two-hybrid, growth in His-free medium (AH109). As for the experimental part: In this experiment, a bait gene (tssk 2) was first transformed into the reporter strain as a fusion to the GAL4 DNA binding domain (DNA-BD). A second plasmid that expressed tsks as fusion to the GAL 4 activation domain (AD) was also introduced into the AH109 reporter strain. Western blots were performed to confirm expression of fusion proteins in yeast. […] This interaction was used as a positive control. […] Neither GAL-AD alone nor the fusion proteins between GAL-AD and TSKS or GAL-AD and SV40 Large T antigen had the ability to activate transcription of the His gene.

B1: tssk 2 fused to the GAL4 DNA binding domain (DNA-BD) (protein)
chain: MKLLSSIEQACDICRLKKLKCSKEKPKCAKCLKNNWECRYSPKTKRSPLTRAHLTEVESRLERLEQLFLLIFPREDLDMILKMDSLQDIKALLTGLFVQDNVNKDAVTDRLASVETDMPLTLRQHRISATSSSEESSNKGQRQLTVSMDDATVLRKKGYIVGINLGKGSYAKVKSAYSERLKFNVAVKIIDRKKTPTDFVERFLPREMDILATVNHGSIIKTYEIFETSDGRIYIIMELGVQGDLLEFIKCQGALHEDVARKMFRQLSSAVKYCHDLDIVHRDLKCENLLLDKDFNIKLSDFGFSKRCLRDSNGRIILSKTFCGSAAYAAPEVLQSIPYQPKVYDIWSLGVILYIMVCGSMPYDDSDIRKMLRIQKEHRVDFPRSKNLTCECKDLIYRMLQPDVSQRLHIDEILSHSWLQPPKPKATSSASFKREGEGKYRAECKLDTKTGLRPDHRPDHKLGAKTQHRLLVVPENENRMEDRLAETSRAKDHHISGAEVGKAST
As for B1, in data set [1], the “transcription of the Histidine (HIS) gene; growth of yeast in His-free medium” value was “promote transcription of the Histidine (HIS) gene and allow for the growth of yeast in His-free medium”.

B2: GAL 4 activation domain alone (GAL-AD plasmid) (other, UniProt P04386 768-881, looked up)
chain: ANFNQSGNIADSSLSFTFTNSSNGPNLITTQTNSQALSQPIASSNVHDNFMNNEITASKIDDGNNSKPLSPGWTDQTAYNAFGITTGMFNTTTMDDVYNYLFDDEDTPPNPKKE
notes: Negative-control prey without an insert; also called GAL-AD alone
As for B2, in data set [2], the binding result is “no binding”.

These data come from patent US20050032146A1 (published 2005).
